In the supplement of paper PMC12042874:
± gives the uncertainty stated by the source.

Experiment: amyloid nucleation score (Sup35N fusion, yeast selection) (log enrichment); library NNK3; higher = more nucleation; inactive = no reads after selection
Procedure, shortened: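 Plasmid inserts were Illumina-sequenced at input and output from psi-negative yeast expressing Sup35N fused to peptides of 20 random codons. The yeast were induced with 100 μM copper sulfate for 24 hours and grown 7 days at 30°C on medium lacking adenine and uracil, and sequences with under 100 input reads were excluded. Nucleation score is the DiMSum log enrichment of output over input reads, centred on the mode score of non-aggregating sequences.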

FTNKNCFIGAVTRCEVRVWG
amyloid nucleation score: inactive

FTPYICVVQLLCYCMILRIY
amyloid nucleation score: inactive

FTRAAREGFFDLY
amyloid nucleation score: -0.04 ± 0.66

FTSEAPIKVQHWVYTSLPSV
amyloid nucleation score: inactive

FTSMFVLIVILSQMLSLQFR
amyloid nucleation score: inactive

FTVGILFGNLHLEFGVKVND
amyloid nucleation score: 1.6 ± 0.071

FTWLSMYYCLRANERK
amyloid nucleation score: 1.33 ± 0.15

FVDMIMKEDKFVLGQNFLRG
amyloid nucleation score: inactive

FVDWFLVGCRMVMLDRVLAS
amyloid nucleation score: inactive

FVFIQSHYQNMRFGKF
amyloid nucleation score: inactive

FVFRHYSRPDIFQDGKKSAN
amyloid nucleation score: 1.08 ± 0.15

FVGTCGMMSALFLHSSPSFV
amyloid nucleation score: inactive

FVHHYIWRVNL
amyloid nucleation score: 0.712 ± 0.36

FVHQRYRAQIIRLLPTSWGC
amyloid nucleation score: inactive

FVLMPSSFYNYWTTSEDFRS
amyloid nucleation score: inactive

FVLVN
amyloid nucleation score: inactive

FVLVWFLRLFDL
amyloid nucleation score: inactive

FVQDFSTFTAGWCL
amyloid nucleation score: inactive

FVRGCSRNSTRDCFYK
amyloid nucleation score: inactive

FVRSQSCS
amyloid nucleation score: inactive

FVSMRIYGGLRRWHHEYLVV
amyloid nucleation score: inactive

FVTKRCFDMLF
amyloid nucleation score: inactive

FVWMLRWMGRDD
amyloid nucleation score: 0.816 ± 0.24

FVYLSSKYIMSQMFKGKQMY
amyloid nucleation score: inactive

FWDTKFEFFQLHRVWIPLLV
amyloid nucleation score: inactive

FWFLYSSRAQRRRRHWI
amyloid nucleation score: inactive

FWGLSAMSLEVRGWRMGGEL
amyloid nucleation score: 0.196 ± 0.54

FWLHLVPYRFPIVGLCLRG
amyloid nucleation score: inactive

FWMCVSVSARWAPTSLGFGS
amyloid nucleation score: inactive

FWQSIYDGMGSVIFHHGFTQ
amyloid nucleation score: 0.434 ± 0.14

FWRSGNFYVNTVVLCASSRE
amyloid nucleation score: 2.03 ± 0.099

FWYSYQ
amyloid nucleation score: inactive

FYFKR
amyloid nucleation score: inactive

FYFMPNFV
amyloid nucleation score: inactive

FYFNYFIRMCNITCDI
amyloid nucleation score: 2.73 ± 0.05

FYHVTGLFT
amyloid nucleation score: inactive

FYIFNWGFFGIKWYLIWNEI
amyloid nucleation score: inactive

FYLCKRMNGSWNTLISV
amyloid nucleation score: inactive

FYRCLLNH
amyloid nucleation score: inactive

FYSECCILMGFFVGQNHSVW
amyloid nucleation score: 1.61 ± 0.094

FYSWDIHGCIVHSIYV
amyloid nucleation score: inactive

FYVNINFSELVSVDTISSFI
amyloid nucleation score: 0.208 ± 0.31

FYVSSTP
amyloid nucleation score: inactive

FYWSLNSYVCASCMILFALM
amyloid nucleation score: inactive

GACRCNCSSSDDPQNKRNML
amyloid nucleation score: inactive

GACTHGRSSCDKIYLRYSYG
amyloid nucleation score: inactive

GAGTGQWLDSFGVEIHHPRS
amyloid nucleation score: inactive

GAGWTQAIAFIQS
amyloid nucleation score: inactive

GAGYL
amyloid nucleation score: inactive

GAMNVESLSMFMRVYYVPYR
amyloid nucleation score: inactive

GASREFQTCSVGVYYVAIEK
amyloid nucleation score: inactive

GATVLLSNFSVCPHMARSSG
amyloid nucleation score: inactive

GAVFSEWTQVRSCDCDGIDK
amyloid nucleation score: inactive

GCAGRSWTGYRVHAASV
amyloid nucleation score: inactive

GCFSV
amyloid nucleation score: inactive

GCHLFHWFIFAYCYHYEGTN
amyloid nucleation score: 1.91 ± 0.09

GCIKGVICLTHC
amyloid nucleation score: inactive

GCISVVSL
amyloid nucleation score: inactive

GCKEL
amyloid nucleation score: inactive

GCLDQFGCGGTPVKVFATNV
amyloid nucleation score: -1.39 ± 2.5

GCNREGTYSRPVLTATNGG
amyloid nucleation score: -0.152 ± 0.93

GCRGVTVHSADCCDLSIYLC
amyloid nucleation score: 2.31 ± 0.082

GDFLNCAFLTKIFEHQNNFW
amyloid nucleation score: 1.85 ± 0.077

GDIRLGVAFRIFLSNCWGYF
amyloid nucleation score: inactive

GDMFGQPCRTCMFDLLKPVS
amyloid nucleation score: inactive

GDSFCFQLGVMCINHVRWY
amyloid nucleation score: 1.78 ± 0.09

GDSNTSRLCAPSMRNVKAQL
amyloid nucleation score: inactive

GDVLLY
amyloid nucleation score: inactive

GDVNCLNTVTLKNNKTRGHI
amyloid nucleation score: inactive

GECPRQRVSLM
amyloid nucleation score: inactive

GEHSGRYYSNVSKNESMGVI
amyloid nucleation score: inactive

GEIANSQVRKWLIEMYSPVV
amyloid nucleation score: inactive

GEIRSKTTVLP
amyloid nucleation score: inactive

GERHMVLSVNLRCVTVNVYW
amyloid nucleation score: inactive

GESSP
amyloid nucleation score: inactive

GFFTYTTRSGDSSYGVEASA
amyloid nucleation score: -0.289 ± 1.1

GFGDRMDNPSVVSK
amyloid nucleation score: inactive

GFHELRLH
amyloid nucleation score: inactive

GFIGECFFDHMGITFVLIET
amyloid nucleation score: inactive

GFIVSRERLNVMVLFSVYW
amyloid nucleation score: inactive

GFLLFLAVWRDTIGIVLVVL
amyloid nucleation score: inactive

GFMHTVRCIRIEPPQCRAVV
amyloid nucleation score: inactive

GFNYVFDSGEFGDRSFWHIY
amyloid nucleation score: inactive

GFTRKFSFYKRHQSVWITRR
amyloid nucleation score: inactive

GFWWVTRPSTPARLSSMSPQ
amyloid nucleation score: inactive

GFYAE
amyloid nucleation score: inactive

GGAVMMALWGGLS
amyloid nucleation score: inactive

GGHVSRRLHF
amyloid nucleation score: inactive

GGKAISNFEFLLILGPY
amyloid nucleation score: inactive

GGLCRGYQDMIMLWNMLQKQ
amyloid nucleation score: inactive

GGLQTERFLWRC
amyloid nucleation score: 0.13 ± 0.63

GGMHRAYMESVSDVYLRKWW
amyloid nucleation score: 0.308 ± 0.21

GHLFVNTRYFGNFLDSSQVR
amyloid nucleation score: inactive

GHTRDFKGSFDFPLNFY
amyloid nucleation score: inactive

GICEMVGTSYTFE
amyloid nucleation score: inactive

GIFVGPSVDSLLKLRARSHY
amyloid nucleation score: inactive

GIKFAGRRLTSEDL
amyloid nucleation score: inactive

GIKKTREPNCLVCIDIWIFI
amyloid nucleation score: 1.33 ± 0.07

GILSISQNKISVHPLLLLRI
amyloid nucleation score: inactive

GISFFIMFILVPLFRKGVKV
amyloid nucleation score: inactive

GISILLSSYPRMCLLRLVGL
amyloid nucleation score: inactive

GIWSASRLKGNSLYCLLKNV
amyloid nucleation score: inactive

GIYFDSGLRGWHSLNHRCRR
amyloid nucleation score: 0.132 ± 0.59

GIYSI
amyloid nucleation score: inactive

GKDSCKTTLVSRRLLRLKAP
amyloid nucleation score: inactive

GKFLVFAKVNVMVGCVLLFM
amyloid nucleation score: inactive

GKFNTCA
amyloid nucleation score: inactive

GKGFCLLVVSSVMRDVGLVQ
amyloid nucleation score: inactive

GKMLRWMKH
amyloid nucleation score: inactive

GKSIYCWFWVKMQEAERLMS
amyloid nucleation score: inactive

GKSSKDLHIFIMIRVWHYLT
amyloid nucleation score: inactive

GKSTVGMI
amyloid nucleation score: inactive

GKTLLTSKDGCV
amyloid nucleation score: inactive

GKTSGCWSFFYILIS
amyloid nucleation score: -0.388 ± 0.75

GLCNNHIGKIFTYWNTPLDY
amyloid nucleation score: inactive

GLEAPTCPEVFNIGIFSYYH
amyloid nucleation score: 1.45 ± 0.068

GLEVLVISIGAWLSLTLSFQ
amyloid nucleation score: inactive

GLISPRYATSSWLCQPIINF
amyloid nucleation score: inactive

GLLFYYMILLGELLQR
amyloid nucleation score: inactive

GLLLVRM
amyloid nucleation score: inactive

GLLMSMRSFFSGQVQNGAVL
amyloid nucleation score: inactive

GLLNSD
amyloid nucleation score: inactive

GLVHCNGSPAQITFKDTFNR
amyloid nucleation score: inactive

GLVSVLSDEMYCFWQYSCYS
amyloid nucleation score: 1.91 ± 0.091

GLVWVN
amyloid nucleation score: inactive

GLWNDCKRWLRRS
amyloid nucleation score: inactive

GMRRFHNVRINVVSRWWFLE
amyloid nucleation score: 0.545 ± 0.28

GMTVLLSMVI
amyloid nucleation score: inactive

GNCHDVWVYVLCTVGMSLMR
amyloid nucleation score: inactive

GNEIGITGVYGLHRSAKVVV
amyloid nucleation score: inactive

GNFCDCEDFHKGSAGLRWSG
amyloid nucleation score: inactive

GNFMNNGRLVASPLLREVCC
amyloid nucleation score: inactive

GNGVTPWPAEENSSRSPMPY
amyloid nucleation score: inactive

GNISGLNLVCEPIAVGSACE
amyloid nucleation score: -0.962 ± 1.9

GNLWT
amyloid nucleation score: 0.637 ± 0.12

GNSDR
amyloid nucleation score: inactive

GNSLWKSPCYL
amyloid nucleation score: inactive

GNSVRIAWQVWCTLCMTRQW
amyloid nucleation score: 0.356 ± 0.22

GNVILCFMLNYSMISGNDM
amyloid nucleation score: 0.956 ± 0.17

GNVQIDASIKKSNGRWYGSV
amyloid nucleation score: -0.063 ± 0.31

GNWCSG
amyloid nucleation score: inactive

GNWQCFTEGRTPCYFCCITT
amyloid nucleation score: inactive

GNWSYVENYV
amyloid nucleation score: inactive

GPCFEVAVYYDATEMGKQSI
amyloid nucleation score: -0.507 ± 1.1

GPGSYWEMRTN
amyloid nucleation score: inactive

GPLHMANYGYVLNIYLSCRN
amyloid nucleation score: 2.15 ± 0.06

GPRMCMQLRS
amyloid nucleation score: inactive

GPTLSGLNIAHWSNIYQDLG
amyloid nucleation score: inactive

GQEGSRN
amyloid nucleation score: 0.186 ± 0.53

GQKDCYFLIMYIREVLNRYT
amyloid nucleation score: inactive

GQSLLFRISLISCV
amyloid nucleation score: 0.199 ± 0.23

GQWELGHFQCKVPYLLSQLL
amyloid nucleation score: inactive

GRCFKFCNLDT
amyloid nucleation score: inactive

GRIQPCISRAAGPDAGVMGL
amyloid nucleation score: inactive

GRMFVNVNFAIQCYMAFTYL
amyloid nucleation score: 2.42 ± 0.071

GRNRHTYDRLYCPFVRSLIV
amyloid nucleation score: inactive

GRRYVLEENSVIISWCVIYY
amyloid nucleation score: inactive

GRTVTVWMFASVRRGVTGYV
amyloid nucleation score: inactive

GRTWFKYPHSDSGCSFWLTA
amyloid nucleation score: inactive

GSALSSLFQCLLFPLSVSVL
amyloid nucleation score: 0.49 ± 0.21

GSDFTESCVDFFLVVNVDAV
amyloid nucleation score: inactive
